Series [1] in a line: Tissue accumulation (plasma, tumor, small intestine) in B16-F10 tumor-bearing mice, HPLC. The series is classed as in vivo. On the procedure:
Female C57BL/6J mice were subcutaneously injected with 2 × 10^6 B16-F10 cells. The cells were prepared in a mixture containing a 1:1 volume ratio of phosphate-buffered saline (PBS) and Matrigel (Corning, New York, USA), with the total injection volume being 200 μL, administered into the dorsal flank. Tumor growth was measured bi-daily using calipers until tumors reached a size of approximately 300 ~ 500 mm^3, at which point they were deemed palpable. […] Blood samples were collected at 30 and 60 min post-administration. Then both the tumors and small intestines were excised and weighed for subsequent analysis by HPLC.
(§1) HPLC analyses were conducted as previously described. In brief, tumors and small intestines were homogenized in ice-cold PBS (3 times the tissue weight, v/w). The homogenates were then centrifuged at 15,000 ×g for 40 min at 4 °C. A 10 μL aliquot of the tissue supernatant or plasma was mixed with 190 μL of acetonitrile (MeCN) to precipitate proteins. This mixture was subsequently centrifuged at 15,000 ×g for 30 min at 4 °C. The resulting supernatant (100 μL) was dried, and the residue was reconstituted in 20 μL of 400 mM sodium borate (pH 8.0). Finally, 5 μL of 40 mM 4-fluoro-7-nitro-2,1,3-benzoxadiazole (NBD-F) in MeCN was added for fluorescence derivatization. HPLC analysis was carried out using a NANOSPACE SI-2 HPLC system (Shiseido, Tokyo, Japan) equipped with a fluorescence detector. […] The mobile phase consisted of MeCN, water, and trifluoroacetic acid (TFA) in a 27.5:72.5:0.05 (v/v/v) ratio, delivered at a flow rate of 200 μL/min.

Series [2] in a line: Plasma concentration-time profile in normal mice after intravenous administration. Type of series: in vivo. As to conditions: C57BL/6J mice, i.v., 15, 30, 60, 120 min; 2-F-Tyr 15.6 mg/kg, bicyclic-Phe 15 mg/kg. As to the method: The blood samples were collected at 15, 30, 60, and 120 min post-administration into lithium heparin-coated tubes (BD, New Jersey, USA) and then centrifuged at 1,500 ×g for 10 min at 23 °C. The resulting plasma was stored at −80 °C pending analysis by HPLC.
as §1

Substrate in series [3]: C[C@](N)(Cc1ccccc1)C(=O)O
Briefly: Efflux of pre-loaded L-[14C]alanine from HEK293-hLAT2 cells induced by extracellular compounds. The series is classed as cell-based, human. As to conditions: other: LAT2, L-[14C]alanine efflux, 1 min; mean ± S.E.M., n = 3; 37.0 °C. On the procedure:
(§2) We evaluated the efflux of pre-loaded L-[^14C]leucine from LAT1 and pre-loaded L-[^14C]alanine from LAT2 induced by extracellularly applied compounds.
(§3) Efflux experiments were performed as described previously. Cells cultured 48 h were pre-loaded with 5 μM L-[^14C]leucine or L-[^14C]alanine for 10 min at 37 °C. The cells were then washed, and the efflux was induced by incubating cells for 1 min in either the absence or presence of non-radiolabeled test compounds at indicated concentrations. The efflux time of 1 min fell within the linear range of time-dependent substrate efflux mediated by LAT1 and LAT2 (Supplementary Fig. S2). Following incubation, the medium was collected and radioactivity was measured in both the medium and the cells. Efflux was quantified as the percentage of radioactivity released into the medium, calculated using the formula: radioactivity of medium/(radioactivity of medium + radioactivity of cells) × 100%.
(§4) The kinetic parameters for the efflux of L-[^14C]leucine or L-[^14C]alanine induced by various concentrations of extracellularly-applied test compounds were analyzed. The baseline efflux values—those obtained in the absence of test compounds—were subtracted from the values measured in the presence of the compounds. The resultant data were fitted to Michaelis–Menten kinetics to determine the Km and Vmax by nonlinear regression analysis using “enzyme kinetics-velocity as a function of substrate” module within GraphPad Prism software.

Substrate in series [4]: N[C@@H](Cc1ccccc1)C(=O)O
Described as above. Type of series: cell-based, human. As to conditions: other: LAT2, L-[14C]alanine efflux, 1 min; mean ± S.E.M., n = 3; 37.0 °C. As to the method:
as §2, §3, §4

Substrate in series [5]: N[C@@H](Cc1ccccc1I)C(=O)O
The description is as above. The series is classed as cell-based, human. As to conditions: other: LAT2, L-[14C]alanine efflux, 1 min; mean ± S.E.M., n = 3; 37.0 °C. On the procedure: as §2, §3, §4

Substrate in series [6]: N[C@]1(C(=O)O)CCc2ccccc2C1
The series is described as above. Type of series: cell-based, human. As to conditions: other: LAT2, L-[14C]alanine efflux, 1 min; mean ± S.E.M., n = 3; 37.0 °C. As to the method: as §2, §3, §4

Where “and” joins values, the source holds several entries; their conditions need not be identical. Identical values can stand only once.

As to `N[C@@H](Cc1ccc(O)cc1F)C(=O)O` [2-F-Tyr, 2-Fluoro-L-tyrosine, reference compound], the “Small intestine-to-plasma ratio (I/P) (in words)” value in series [1] (30 and 60 min after i.v., equimolar doses) was “considerably higher for 2-F-Tyr than for bicyclic-Phe”. In series [1] (i.v., normalized to tissue weight / plasma volume, 2-F-Tyr at 60 min), the “Concentration in tumor compared with plasma” value is reported as “higher in the tumor than in plasma”. In addition, the “Plasma concentration (in words)” value in series [2] is recorded as “time-dependent decreases in plasma concentration”.

B1: human LAT2 (Homo sapiens) (protein)
chain: MEEGARHRNNTEKKHPGGGESDASPEAGSGGGGVALKKEIGLVSACGIIVGNIIGSGIFVSPKGVLENAGSVGLALIVWIVTGFITVVGALCYAELGVTIPKSGGDYSYVKDIFGGLAGFLRLWIAVLVIYPTNQAVIALTFSNYVLQPLFPTCFPPESGLRLLAAICLLLLTWVNCSSVRWATRVQDIFTAGKLLALALIIIMGIVQICKGEYFWLEPKNAFENFQEPDIGLVALAFLQGSFAYGGWNFLNYVTEELVDPYKNLPRAIFISIPLVTFVYVFANVAYVTAMSPQELLASNAVAVTFGEKLLGVMAWIMPISVALSTFGGVNGSLFTSSRLFFAGAREGHLPSVLAMIHVKRCTPIPALLFTCISTLLMLVTSDMYTLINYVGFINYLFYGVTVAGQIVLRWKKPDIPRPIKINLLFPIIYLLFWAFLLVFSLWSEPVVCGIGLAIMLTGVPVYFLGVYWQHKPKCFSDFIELLTLVSQKMCVVVYPEVERGSGTEEANEDMEEQQQPMYQPTPTKDKDVAGQPQP
notes: expressed in transfected cells
Broadly, the Km is the substrate concentration at which the rate is half of its maximum. With B1, the Michaelis constant (Km) in series [3] was 246.49 ± 23.00 µM; in series [4], 25.21 ± 2.43 µM; in series [5], 35.34 ± 1.95 µM; in series [6] it was 30 µM and 29.96 ± 4.00 µM.

The values above are taken from article PMC10897196, “Structure–activity characteristics of phenylalanine analogs selectively transported by L-type amino acid transporter 1 (LAT1)” (Scientific Reports, 2024).
